Reference: paper PMC6156662 (Proceedings of the National Academy of Sciences of the …, 2018)
Positions count from the first letter of the chain named. Names and notes keep the numbering of the source.

Key:
HCT116^δCHMP4C cells [1] = experiment: Cell growth assay with aphidicolin; format: cell-based; settings: 30 nM aphidicolin
[2] = system: cells stably expressing HA-CHMP4C constructs, with siRNA; experiment: Abscission checkpoint activation by drug; format: cell-based
[3] = system: HCT116^WT and HCT116^δCHMP4C cells; experiment: Cell-cycle arrest by flow cytometry, mitomycin C; format: cell-based; settings: 200 ng/mL mitomycin C, overnight
[4] = system: HCT116^WT and HCT116^δCHMP4C cells; experiment: Mitotic arrest by flow cytometry and Western blotting, nocodazole; format: cell-based; settings: 50 ng/mL nocodazole
HCT116 cells [5] = settings: 0.1 μM reversine, cells with defective abscission checkpoint
HCT116^WT cells [6] = settings: 0.1 μM reversine, 48 h; <37 or >48 chromosomes; DMSO 1%
HCT116^WT cells [7] = settings: 0.1 μM reversine, 7 d
HCT116^δCHMP4C cells [8] = experiment: Cell growth assay with reversine, HCT116^δCHMP4C; format: cell-based; settings: 0.1 μM reversine
HCT116 cells [9] = experiment: Anaphase chromosome missegregation; format: cell-based; settings: low-dose (0.1 μM) reversine, or p53 depletion by shRNA
HCT116^δCHMP4C cells [10] = experiment: Karyotyping, extreme aneuploidy in HCT116^δCHMP4C; format: cell-based; settings: 0.1 μM reversine; for protection against reversine-induced aneuploidy: reexpression in HCT116^δCHMP4C
full-length ALIX = experiment: Yeast two-hybrid β-galactosidase assay with ALIX; settings: full-length CHMP4C, mean ± SD, n = 3
[11] = system: HeLa cells stably expressing YFP-Lap2β; experiment: Resolution time of YFP-Lap2β chromatin bridges, live-cell imaging; settings: siCHMP4C, endogenous CHMP4C 685 min
[12] = system: HeLa mCherry-tubulin cells; experiment: Midbody abscission time, live-cell imaging; settings: siCHMP4C background
HeLa cells = experiment: Abscission checkpoint activity; settings: siCHMP4C; Nup153/Nup50 partial depletion; midbody-arrested cells
midbody of HeLa cells = experiment: HA-CHMP4C midbody recruitment; settings: with or without nucleoporin depletion
HCT116 cells [13] = experiment: Cell growth assay after p53 depletion; format: cell-based; settings: p53 shRNA
HCT116^δCHMP4C cells [14] = experiment: DNA damage: 53BP1 foci; format: cell-based; settings: reexpression in HCT116^δCHMP4C
[15] = construct expressed in HCT116^δCHMP4C

C[C@@]1(CO)[C@H](O)CC[C@@]2(C)[C@H]1CC[C@H]1C[C@@H]3C[C@@]12CC[C@]3(O)CO [aphidicolin, reference compound]
effect on proliferation (HCT116^δCHMP4C cells [1]; continuous): reduced the proliferation of HCT116^δCHMP4C cells nearly twofold compared with HCT116^WT cells
activation of the abscission checkpoint ([2]; 30 nM aphidicolin, 24 h (replication stress)): triggers the abscission checkpoint in a CHMP4C-dependent manner

CO[C@@]12[C@H](COC(N)=O)C3=C(C(=O)C(C)=C(N)C3=O)N1C[C@@H]1N[C@@H]12 [mitomycin C]
G2/M cell-cycle arrest [3]: normal in HCT116^δCHMP4C cells

COC(=O)Nc1nc2cc(C(=O)c3cccs3)ccc2[nH]1 [nocodazole]
mitotic / G2/M arrest [4]: did not observe a failure of HCT116^δCHMP4C cells to arrest

c1nc2nc(Nc3ccc(N4CCOCC4)cc3)nc(NC3CCCCC3)c2[nH]1 [reversine]
micronuclei (HCT116 cells [5]): did display a higher proportion of micronuclei
multinucleation (HCT116 cells [5]): did not induce a multinucleation phenotype
cells with extreme aneuploidy (HCT116^WT cells [6]): 7%
reduction of cell growth (HCT116^WT cells [7]): reduced HCT116^WT cell growth only modestly
reduction of cell growth (HCT116^δCHMP4C cells [8]; over 7-d period): at least 70%
anaphase chromosome missegregation (HCT116 cells [9]): doubled the frequency of anaphase chromosome missegregation
cells with extreme aneuploidy (HCT116^δCHMP4C cells [10]; 48 h, <37 or >48 chromosomes, DMSO 4%): 23%
activation of the abscission checkpoint ([2]; 0.1 μM reversine, 24 h): activated the abscission checkpoint in a CHMP4C-dependent fashion

B1: A232T full-length CHMP4C (protein, UniProt Q96CF2 1-233, looked up, variant A232T)
chain: MSKLGKFFKGGGSSKSRAAPSPQEALVRLRETEEMLGKKQEYLENRIQREIALAKKHGTQNKRAALQALKRKKRFEKQLTQIDGTLSTIEFQREALENSHTNTEVLRNMGFAAKAMKSVHENMDLNKIDDLMQEITEQQDIAQEISEAFSQRVGFGDDFDEDELMAELEELEQEELNKKMTNIRLPNVPSSSLPAQPNRKPGMSSTARRSRAASSQRAEEEDDDIKQLAAWTT
modifications: full-length
interaction with ALIX (full-length ALIX): significantly reduced the interaction between full-length CHMP4C and ALIX

B2: L228A with W231A full-length CHMP4C (protein, UniProt Q96CF2 1-233, looked up, variant L228A W231A)
chain: B1 chain with L228A, W231A, T232A
modifications: full-length
interaction with ALIX (full-length ALIX): complete loss of ALIX binding

B3: HA-CHMP4C^T232: HA-CHMP4C full length siRNA-resistant T232 rs35094336 mutant (protein, UniProt Q96CF2 1-233, looked up, variant A232T)
chain: B1 chain
modifications: full-length HA tag
chromatin bridge resolution time, median [11]: 200 min
abscission rate under normal growth conditions [12]: proceeded through abscission more rapidly under normal growth conditions
protection against reversine-induced aneuploidy (HCT116^δCHMP4C cells [10]): but not HA-CHMP4C^T232, protected against reversine-induced increases in aneuploidy
abscission checkpoint activity (HeLa cells): does not support the abscission checkpoint
recruitment to midbody (midbody of HeLa cells): recruited to the midbody at normal levels

B4: HA-CHMP4C^A232: HA-CHMP4C full length siRNA-resistant wild type, reference protein (protein, UniProt Q96CF2 1-233, looked up)
chain: B1 chain with T232A
modifications: full-length HA tag
growth after p53 depletion (HCT116 cells [13]): reversed upon reexpression of CHMP4C^A232
chromatin bridge resolution time, median [11]: 800 min
DNA damage, 53BP1 foci (HCT116^δCHMP4C cells [14]): reduced to control levels upon reexpression of HA-CHMP4C^A232
rescue of growth defect under aphidicolin (HCT116^δCHMP4C cells [1]; [15]): rescued by expression of HA-CHMP4C^A232
restoration of growth in presence of reversine (HCT116^δCHMP4C cells [8]; [15]): restored by the expression of HA-CHMP4C^A232
protection against reversine-induced aneuploidy (HCT116^δCHMP4C cells [10]): protected against reversine-induced increases in aneuploidy
abscission checkpoint activity (HeLa cells): checkpoint activity was rescued in cells that expressed HA-CHMP4C^A232
recruitment to midbody (midbody of HeLa cells): recruited to the midbody at normal levels
